Measured values taken from article PMC10397247.
One block for each binder: values may come before it.

Assays:
[1] = target: T1, 4H797-bH; experiment: two-hybrid library CCNG1;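 also: natural log of median RNA to DNA barcode read ratio; higher means stronger binding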
T1 chain: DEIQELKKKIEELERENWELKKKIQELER

[2] = target: T2, 4H918-bH; experiment: two-hybrid library CCNG1;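 also: natural log of median RNA to DNA barcode read ratio; higher means stronger binding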
T2 chain: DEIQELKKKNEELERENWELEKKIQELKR

[3] = target: T3, 4H968-bH; experiment: two-hybrid library CCNG1;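 also: natural log of median RNA to DNA barcode read ratio; higher means stronger binding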
T3 chain: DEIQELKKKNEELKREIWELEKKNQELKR

[4] = target: T4, 4H855-bH; experiment: two-hybrid library CCNG1;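 also: natural log of median RNA to DNA barcode read ratio; higher means stronger binding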
T4 chain: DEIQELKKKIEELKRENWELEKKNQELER

[5] = target: T5, 4H953-bH; experiment: two-hybrid library CCNG1;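 also: natural log of median RNA to DNA barcode read ratio; higher means stronger binding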
T5 chain: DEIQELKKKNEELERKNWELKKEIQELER

[6] = target: T6, 4H908-bH; experiment: two-hybrid library CCNG1;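 also: natural log of median RNA to DNA barcode read ratio; higher means stronger binding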
T6 chain: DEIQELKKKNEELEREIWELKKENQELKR

[7] = target: T7, 4H967-bH; experiment: two-hybrid library CCNG1
T7 chain: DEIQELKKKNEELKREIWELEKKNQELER

[8] = target: T8, O16-bA; experiment: two-hybrid library CCNG1
T8 chain: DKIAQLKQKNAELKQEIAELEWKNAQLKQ

[9] = target: T9, 4H883-bH; experiment: two-hybrid library CCNG1
T9 chain: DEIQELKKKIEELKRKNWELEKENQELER

[10] = target: T10, 4H327-AA; experiment: two-hybrid library CCmax; conditions: mean of both orientations
T10 chain: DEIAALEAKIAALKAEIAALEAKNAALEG

[11] = target: T11, 4H4033-AA; experiment: two-hybrid library CCmax; conditions: mean of both orientations
T11 chain: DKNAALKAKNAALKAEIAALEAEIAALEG

[12] = target: T12, 4H2536-AA; experiment: two-hybrid library CCmax
T12 chain: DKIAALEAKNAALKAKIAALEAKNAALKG

[13] = target: T13, 4H3605-AA; experiment: two-hybrid library CCmax; conditions: mean of both orientations
T13 chain: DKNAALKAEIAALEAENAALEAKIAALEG

[14] = target: T14, 4H2513-AA; experiment: two-hybrid library CCmax
T14 chain: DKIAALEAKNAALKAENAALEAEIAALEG

[15] = target: T15, 4H369-AA; experiment: two-hybrid library CCmax; conditions: mean of both orientations
T15 chain: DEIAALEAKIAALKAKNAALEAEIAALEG

[16] = target: T16, 4H55-AA; experiment: two-hybrid library CCmax
T16 chain: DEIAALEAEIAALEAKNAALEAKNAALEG

[17] = target: T17, 4H3664-AA; experiment: two-hybrid library CCmax; conditions: mean of both orientations
T17 chain: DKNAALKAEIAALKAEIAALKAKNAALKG

[18] = target: T18, 4H481-AA; experiment: two-hybrid library CCmax; conditions: mean of both orientations
T18 chain: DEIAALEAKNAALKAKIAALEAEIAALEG

[19] = target: T19, 4H2726-AA; experiment: two-hybrid library CCmax; conditions: mean of both orientations
T19 chain: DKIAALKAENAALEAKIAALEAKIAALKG

[20] = target: T20, 4H2935-AA; experiment: two-hybrid library CCmax; conditions: mean of both orientations
T20 chain: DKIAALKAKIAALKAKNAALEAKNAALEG

[21] = target: T21, 4H3625-AA; experiment: two-hybrid library CCmax; conditions: mean of both orientations
T21 chain: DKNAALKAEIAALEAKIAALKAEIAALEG

[22] = target: T22, 4H3922-AA; experiment: two-hybrid library CCmax; conditions: mean of both orientations
T22 chain: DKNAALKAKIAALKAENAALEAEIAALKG

[23] = target: T23, 4H662-AA; experiment: two-hybrid library CCmax; conditions: mean of both orientations
T23 chain: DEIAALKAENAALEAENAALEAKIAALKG

[24] = target: T24, 4H2614-AA; experiment: two-hybrid library CCmax; conditions: mean of both orientations
T24 chain: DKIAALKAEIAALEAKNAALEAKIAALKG

[25] = target: T25, 4H2608-AA; experiment: two-hybrid library CCmax; conditions: mean of both orientations
T25 chain: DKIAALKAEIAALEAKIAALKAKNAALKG

[26] = target: T26, O8-bA; experiment: two-hybrid library CCNG1
T26 chain: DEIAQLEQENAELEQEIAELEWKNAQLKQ

[27] = target: T27, O5-bA; experiment: two-hybrid library CCNG1
T27 chain: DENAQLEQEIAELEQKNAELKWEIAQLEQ

[28] = target: T28, O7-bA; experiment: two-hybrid library CCNG1
T28 chain: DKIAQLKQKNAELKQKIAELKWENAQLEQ

[29] = target: T29, O2-bA; experiment: two-hybrid library CCNG1
T29 chain: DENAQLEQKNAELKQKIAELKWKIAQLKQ

[30] = target: T30, O3-bA; experiment: two-hybrid library CCNG1
T30 chain: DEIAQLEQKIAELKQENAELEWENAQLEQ

[31] = target: T31, O9-bA; experiment: two-hybrid library CCNG1
T31 chain: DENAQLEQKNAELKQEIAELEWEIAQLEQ

[32] = target: T32, O4-bA; experiment: two-hybrid library CCNG1
T32 chain: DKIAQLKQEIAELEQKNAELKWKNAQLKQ

[33] = target: T33, O6-bA; experiment: two-hybrid library CCNG1
T33 chain: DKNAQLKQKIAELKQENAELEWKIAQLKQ

interaction score [1]: -0.311
interaction score [2]: 0.24
interaction score [3]: -0.0614
interaction score [4]: -1.17
interaction score [5]: -0.0525
interaction score [6]: -0.915
interaction score [7]: 0.229
interaction score [8]: -0.174
interaction score [9]: 0.639
B1: 4H797-bH (peptide)
chain: DEIQELKKKIEELERENWELKKKIQELER

interaction score [10]: -1.74
interaction score [11]: -1.46
interaction score [12]: -0.747
interaction score [13]: -1.25
interaction score [14]: -1.49
interaction score [15]: -1.79
interaction score [16]: -1.88
interaction score [17]: -1.85
interaction score [18]: -1.36
interaction score [19]: 0.913
interaction score [20]: -2.01
interaction score [21]: -2
interaction score [22]: -1.74
interaction score [23]: 1.22
interaction score [24]: 0.461
interaction score [25]: -1.07
B2: 4H2513-AA (peptide)
chain: DKIAALEAKNAALKAENAALEAEIAALEG

interaction score [26]: 1.35
interaction score [27]: -1.16
interaction score [28]: 1.33
interaction score [29]: -0.141
interaction score [30]: -0.599
interaction score [31]: -1.22
interaction score [8]: -0.811
interaction score [32]: -0.54
interaction score [33]: 1.4
B3: O16-bA (peptide)
chain: DKIAQLKQKNAELKQEIAELEWKNAQLKQ
